Like-named read-outs stand apart in the source and are kept apart here.
Columns and labels:
ADH T = assay: Relative activities of purified ADH T in the reduction of different substrates; type: biochemical, Thermoanaerobacter species
[1] = Activity with diketone 2,5-hexanedione (photometric NADPH decrease); type: biochemical
Method: (§1) The comparison of the activity of the ADH T with that of the secondary alcohol dehydrogenase from Thermoanaerobacter ethanolicus 39E (U.S. Pat. No. 5,908,924) with regard to the conversion of diketones is interesting (Table 6).
(§2) The activities were determined by photometric measurement of the decrease in the cofactor. Measurement batch: 50 mM Tris-Cl, pH 7.0 with 10 mM substrate and 0.2 mM NADPH. The measurement batch for ADH-TE also contained 1 mM of MgCl2.
(§3) The decrease in NADPH was followed at 340 nm for one minute after addition of the enzyme. Sufficient enzyme was added for the activity to be between 0.5 and 1.5 U/ml and the measurement volume was 1 ml.
(§4) 1 U corresponds to the quantity of enzyme which converts 1 μmol of substrate per minute.

[2] = Activity with standard substrate acetone (photometric NADPH decrease); type: biochemical; conditions: acetone (10 mM); ADH T 1.5 mg/ml, ADH-TE 2.45 mg/ml; ADH-TE batch also 1 mM MgCl2
Method: as §1, §2, §3, §4

[3] = Conversion of 2-pentanone with substrate-coupled cofactor regeneration (isopropanol); type: biochemical; conditions: 200 mM 2-pentanone, 3 U/ml ADH T, 0.05 mM NADP
From the text: In fact, it can be shown that the enantioselectivity in the reduction of critical ketones such as 2-pentanone or 2-butanone by substrate-coupled cofactor regeneration with isopropanol is also far better than with the use of enzyme-coupled cofactor regeneration.
Also, the achievable enantiomeric purity of the product depends on the quantity of isopropanol used (Table 9).

[4] = Activity with diketone 2,4-pentanedione (photometric NADPH decrease); type: biochemical
Method: as §1, §2, §3, §4

[5] = Storage stability of the isolated ADH T (residual activity); type: physicochemical; conditions: for Activity Day 5 / Activity Day 10 / Activity Day 20 / Activity Day 40 / Activity Start: storage at 4° C.
Method: In spite of its thermal stability, the isolated ADH T cannot be stored for long under standard conditions (50 mM Tris-Cl, pH 7.0). The half-life is only ca. 4 days. By addition of e.g. NaCl, the half-life can be increased to more than 40 days (Table 2).
as §2, §3, §4

[6] = Activity of the isolated ADH T at different pH values; type: biochemical
Method: The activities were determined by photometric measurement of the decrease in the cofactor. […] The measurement batch for ADH-TE also contained 1 mM of MgCl2.
as §3, §4

[7] = Reduction of 2,5-hexanedione to the diol, conversion and ee/de; type: biochemical; conditions: after 48 hrs
From the text: The ee/de value of 100% signifies absolute enantiomeric and diastereomeric purity of the diols prepared. By means of the invention described here, the ADH T can for the first time be obtained in sufficient quantity to produce enantiomerically pure diols on the kilogram scale.

[8] = Thermal stability of ADH T; type: physicochemical; conditions: after 12 hrs at 50° C.
Method: The thermal stability is also very good. The activity of the ADH T was still at 75% of the starting value even after 12 hrs at 50° C.

[9] = substrate 10 mM, activity with acetone set at 100%, […]
[10] = substrate 10 mM, activity with acetone set at 100%, purified ADH T
[11] = relative to standard substrate acetone (10 mM)

CC=O [Acetaldehyde]
Relative activity (ADH T; [9]): 101%

CCCCC(C)=O [2-hexanone]
Relative activity (ADH T; [9]): 30%

CCOC(=O)CC(C)=O [Ethyl acetoacetate]
Relative activity (ADH T; [10]): 22%

CC(=O)CC(C)=O [2,4-pentanedione]
Relative activity (ADH T; [10]): 77%

CC(=O)c1ccccc1 [Acetophenone]
Relative activity (ADH T; [10]): 28%

Monochloroacetone
Relative activity (ADH T): 71%

CCCCCCC(C)=O [2-octanone]
Relative activity (ADH T; [10]): 9%

O=C1CCCCC1=O [1,2-cyclohexanedione]
Relative activity (ADH T; [10]): 5%

CCOC(=O)CC(=O)CCl [Ethyl 4-chloroacetoacetate]
Relative activity (ADH T; [9]): 45%

CCC(=O)C(=O)O [2-oxobutyric acid]
Relative activity (ADH T; [10]): 28%

CC(=O)CCC(C)=O [2,5-hexanedione]
Relative activity (ADH T; [10]): 74%

CC(C)=O [Acetone]
Relative activity (ADH T; [9]): 100%

CC(=O)C(C)=O [Diacetyl]
Relative activity (ADH T; [10]): 154%

CC(=O)c1ccc(Cl)cc1 [p-chloroacetophenone]
Relative activity (ADH T; [9]): 17%

CC(=O)CCCl [4-chloro-2-butanone]
Relative activity (ADH T; [9]): 66%

CC(=O)c1ccccn1 [2-acetylpyridine]
Relative activity (ADH T; [10]): 36%

CCCC(C)=O [2-pentanone]
Relative activity (ADH T; [10]): 31%

C#CC(C)=O [3-butyn-2-one]
Relative activity (ADH T; [9]): 76%

O=C(CCl)c1ccccc1 [Phenacyl chloride]
Relative activity (ADH T; [9]): 25%

CCC(C)=O [2-butanone]
Relative activity (ADH T; [9]): 72%

CCCCCC(=O)CC [3-octanone]
Relative activity (ADH T; [10]): 26%

CC(=O)CCO [4-hydroxy-2-butanone]
Relative activity (ADH T; [9]): 13%

CCC(C)C=O (stereo not shown) [2-methylbutyraldehyde]
Relative activity (ADH T; [10]): 52%

B1: ADH T: thermally stable, (S)-selective NADP-dependent alcohol dehydrogenase from Thermoanaerobacter species (SEQ ID NO: 2), recombinant (protein)
chain: MKGFAMLSIGKVGWIEVEKPNPGPFDAIVRPLAVAPCSSDIHTVFEGGLGELHNAVLGHEAVGEVVEVGSEVKDFKPGDKVVIPAITPDWRTLDVQRGYHQQSGGMLAGYKFTAQKPGVFAEYIYVNDADMNLAHLPDGISLEAAVMITDMMTTGFHGAELAEIELGATVAVLGIGPVGLMAVAGAKLRGAGRIIAVGSRPVCVDAAKYYGATDIVNYKNGPIDSQIMDLTKGKGVDAAIIAGGNVDIMATAVKIVKPGGTIANVNYFGEGDVLPVPRLEWGCGMAHKAIKGGLCPGGRLRMERLIDLVFYKRVDPSKLVTHVFQGFDNIEKALMLMKDKPKDLIKPVVILA
modifications: Thermoanaerobacter species
spec. activity [1]: 52.7 U/mg | rel. activity [1, 11]: 74% | activity with standard substrate [2]: 106 U/ml | Conversion ([3]; 100 mM Tris-Cl pH 7.0, 20% isopropanol, 24 hours): 85.3% | Conversion ([3]; 100 mM Tris-Cl pH 7.0, 20% isopropanol, 48 hours): 86.5% | Conversion ([3]; 100 mM Tris-Cl pH 7.0, 50% isopropanol, 24 hours): 93.8% | Conversion ([3]; 100 mM Tris-Cl pH 7.0, 50% isopropanol, 48 hours): 94.2% | spec. activity [4]: 55.4 U/mg | rel. activity [4, 11]: 77% | Activity Day 5 ([5]; 0.0 M NaCl): 24 U/ml | Activity Day 10 ([5]; 0.0 M NaCl): 6 U/ml | Activity Day 20 ([5]; 0.0 M NaCl): 0 U/ml | Activity Day 40 ([5]; 0.0 M NaCl): 0 U/ml | Activity Start ([5]; 0.0 M NaCl): 105 U/ml | Activity Day 5 ([5]; 0.2 M NaCl): 101 U/ml | Activity Day 10 ([5]; 0.2 M NaCl): 7 U/ml | Activity Day 20 ([5]; 0.2 M NaCl): 0 U/ml | Activity Day 40 ([5]; 0.2 M NaCl): 0 U/ml | Activity Start ([5]; 0.2 M NaCl): 105 U/ml | Activity Day 5 ([5]; 0.5 M NaCl): 113 U/ml | Activity Day 10 ([5]; 0.5 M NaCl): 86 U/ml | Activity Day 20 ([5]; 0.5 M NaCl): 0 U/ml | Activity Day 40 ([5]; 0.5 M NaCl): 0 U/ml | Activity Start ([5]; 0.5 M NaCl): 105 U/ml | Activity Day 5 ([5]; 1.0 M NaCl): 115 U/ml | Activity Day 10 ([5]; 1.0 M NaCl): 119 U/ml | Activity Day 40 ([5]; 1.0 M NaCl): 78 U/ml | Activity Start ([5]; 1.0 M NaCl): 105 U/ml | duration of high stability on storage ([5]; storage at −20° C. with addition of glycerine, in particular 50%): at least 3 months | effect of addition of zinc ions to the prepared enzyme ([5]; zinc ions added to prepared enzyme): leads rapidly to its inactivation | pH optimum [6]: 7.0 | Measured activity ([6]; pH 5.0): 53 U/ml | Measured activity ([6]; pH 6.0): 134 U/ml | Relative activity ([6]; pH 6.5): 66% | Measured activity ([6]; pH 7.0): 192 U/ml | Relative activity ([6]; pH 7.0): 100% | Relative activity ([6]; pH 7.5): 74% | Measured activity ([6]; pH 8.0): 146 U/ml | Measured activity ([6]; pH 9.0): 13 U/ml | Conversion to diol ([7]; enzyme-coupled): 82.4% | ee/de for the (S,S) enantiomer ([7]; enzyme-coupled): 100% | Conversion to diol ([7]; substrate-coupled): 10.6% | ee/de for the (S,S) enantiomer ([7]; substrate-coupled): 100% | activity remaining, of the starting value [8]: 75%

— patent US7943356B2, “Alcohol dehydrogenase for the stereoselective production of hydroxy compounds” (Codexis, Inc., priority 2004, dated 2011)
